Laboratory results published in patent publication US20210023171A1 (published 2021).
No end group written: not given here.

Experiments:
[1] = target: T1, αvβ3 integrin (soluble / detergent-solubilized) (UniProt P06756 31-1048; P05106 27-788); assay: yeast display, flow cytometry, 50 nM integrin, gross estimate
T1 construct: also called integrin αvβ3; soluble αvβ3 integrin

[2] = target: T2, αvβ3 integrin on cells (U87MG glioblastoma cells; K562-αvβ3 cells) (UniProt P06756 31-1048; P05106 27-788); assay: competition with ^125I-echistatin on U87MG cells (also express αvβ5, α5β1); unlabeled peptide
T2 construct: whole, on cells; also called cell surface αvβ3 integrin

[3] = target: αvβ5 integrin (soluble / detergent-solubilized) (UniProt P06756 31-1048; P18084 24-799); assay: yeast display, flow cytometry
[4] = target: T2, αvβ3 integrin on cells (U87MG …); assay: competition with ^125I-echistatin on U87MG cells; Cy5.5-labeled peptide
[5] = target: T2, αvβ3 integrin on cells (U87MG …); assay: direct equilibrium titration on U87MG cells, anti-His flow cytometry
[6] = target: T3, αiibβ3 integrin on K562 cells stably transfected with αiibβ3 (UniProt P08514 32-1039; P05106 27-788); assay: titration on K562-αiibβ3 cells up to 5 µM, not saturated
T3 construct: whole, on cells; also called K562-αiibβ3; K562-αiiβ3

[7] = target: T2, αvβ3 integrin on cells (U87MG …); assay: direct equilibrium titration on K562-αvβ3 cells, anti-His flow cytometry
[8] = target: T2, αvβ3 integrin on cells (U87MG …); assay: cell-based or functional assay
[9] = target: T2, αvβ3 integrin on cells (U87MG …); assay: competing off ^125I-echistatin, U87MG cells

Chain of αvβ5 integrin (soluble / detergent-solubilized) (P06756 31-1048, chain 1 of 2): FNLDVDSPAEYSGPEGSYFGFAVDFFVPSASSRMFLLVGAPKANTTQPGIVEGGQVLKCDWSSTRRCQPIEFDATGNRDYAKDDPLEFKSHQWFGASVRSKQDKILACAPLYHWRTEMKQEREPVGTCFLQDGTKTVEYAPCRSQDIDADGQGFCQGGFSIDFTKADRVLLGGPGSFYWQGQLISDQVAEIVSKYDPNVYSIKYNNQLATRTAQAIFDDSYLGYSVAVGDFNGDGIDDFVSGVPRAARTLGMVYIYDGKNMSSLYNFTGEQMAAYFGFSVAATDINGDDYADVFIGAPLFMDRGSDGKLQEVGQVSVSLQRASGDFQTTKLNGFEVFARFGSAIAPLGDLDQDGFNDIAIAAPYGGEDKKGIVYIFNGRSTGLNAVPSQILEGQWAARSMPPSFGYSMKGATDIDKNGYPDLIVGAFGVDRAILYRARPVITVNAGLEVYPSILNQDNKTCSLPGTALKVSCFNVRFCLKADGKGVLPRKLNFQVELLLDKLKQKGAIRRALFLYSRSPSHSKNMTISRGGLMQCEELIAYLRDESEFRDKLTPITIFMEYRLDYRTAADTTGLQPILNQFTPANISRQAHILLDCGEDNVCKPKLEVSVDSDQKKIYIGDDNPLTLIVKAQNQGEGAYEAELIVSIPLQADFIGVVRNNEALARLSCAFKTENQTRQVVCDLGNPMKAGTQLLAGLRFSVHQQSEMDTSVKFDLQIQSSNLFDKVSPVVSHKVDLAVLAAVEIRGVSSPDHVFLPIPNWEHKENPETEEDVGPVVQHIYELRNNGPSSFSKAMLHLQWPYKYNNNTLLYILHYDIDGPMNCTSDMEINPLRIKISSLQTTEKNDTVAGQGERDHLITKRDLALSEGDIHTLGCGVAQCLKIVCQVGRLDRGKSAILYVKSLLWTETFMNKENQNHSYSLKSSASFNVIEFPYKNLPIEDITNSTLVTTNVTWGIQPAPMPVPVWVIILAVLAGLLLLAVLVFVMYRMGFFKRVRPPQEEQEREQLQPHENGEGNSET
Chain of αvβ5 integrin (soluble / detergent-solubilized) (P18084 24-799, chain 2 of 2): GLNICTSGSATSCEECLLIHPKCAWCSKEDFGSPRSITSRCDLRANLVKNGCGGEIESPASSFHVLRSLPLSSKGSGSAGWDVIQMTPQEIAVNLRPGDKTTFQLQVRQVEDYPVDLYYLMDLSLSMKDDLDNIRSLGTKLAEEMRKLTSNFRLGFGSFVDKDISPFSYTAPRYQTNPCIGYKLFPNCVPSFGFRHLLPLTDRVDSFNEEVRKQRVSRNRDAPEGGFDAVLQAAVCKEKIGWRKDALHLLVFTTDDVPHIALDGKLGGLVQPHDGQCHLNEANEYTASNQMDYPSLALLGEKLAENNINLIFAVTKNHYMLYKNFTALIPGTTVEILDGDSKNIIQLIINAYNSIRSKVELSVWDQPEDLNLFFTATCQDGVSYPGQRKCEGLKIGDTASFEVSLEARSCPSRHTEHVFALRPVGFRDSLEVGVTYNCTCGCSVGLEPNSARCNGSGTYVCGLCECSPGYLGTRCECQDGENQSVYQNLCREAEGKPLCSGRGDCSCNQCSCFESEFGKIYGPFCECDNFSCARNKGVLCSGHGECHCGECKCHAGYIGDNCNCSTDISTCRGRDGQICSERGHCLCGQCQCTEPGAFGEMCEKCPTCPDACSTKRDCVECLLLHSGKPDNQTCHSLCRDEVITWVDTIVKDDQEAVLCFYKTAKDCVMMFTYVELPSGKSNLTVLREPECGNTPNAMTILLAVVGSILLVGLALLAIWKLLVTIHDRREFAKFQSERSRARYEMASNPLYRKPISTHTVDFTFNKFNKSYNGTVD
T2 sequence (P06756 31-1048, chain 1 of 2): as the sequence (P06756 31-1048, chain 1 of 2) above
T2 sequence (P05106 27-788, chain 2 of 2): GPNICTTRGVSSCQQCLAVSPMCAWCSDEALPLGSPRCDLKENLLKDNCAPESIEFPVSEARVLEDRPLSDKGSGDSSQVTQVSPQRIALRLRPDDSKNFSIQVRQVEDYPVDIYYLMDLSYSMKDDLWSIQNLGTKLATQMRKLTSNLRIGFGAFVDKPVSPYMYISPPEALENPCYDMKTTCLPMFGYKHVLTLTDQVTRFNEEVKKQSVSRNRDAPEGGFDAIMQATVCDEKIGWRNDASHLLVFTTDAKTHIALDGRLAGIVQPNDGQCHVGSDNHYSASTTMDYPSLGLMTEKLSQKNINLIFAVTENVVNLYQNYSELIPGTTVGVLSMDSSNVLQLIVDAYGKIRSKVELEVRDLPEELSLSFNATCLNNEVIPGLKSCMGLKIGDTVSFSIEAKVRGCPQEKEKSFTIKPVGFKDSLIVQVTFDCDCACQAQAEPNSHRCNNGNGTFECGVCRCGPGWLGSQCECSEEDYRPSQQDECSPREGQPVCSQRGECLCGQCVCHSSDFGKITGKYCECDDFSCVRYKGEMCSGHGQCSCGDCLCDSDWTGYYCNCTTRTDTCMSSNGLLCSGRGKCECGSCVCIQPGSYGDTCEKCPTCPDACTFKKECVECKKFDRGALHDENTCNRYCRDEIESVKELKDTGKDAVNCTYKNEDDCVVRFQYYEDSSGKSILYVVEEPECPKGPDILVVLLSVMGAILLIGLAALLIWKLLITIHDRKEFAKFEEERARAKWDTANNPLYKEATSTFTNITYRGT
T1 sequence (P06756 31-1048, chain 1 of 2): as the sequence (P06756 31-1048, chain 1 of 2) above
T1 sequence (P05106 27-788, chain 2 of 2): as the sequence (P05106 27-788, chain 2 of 2) above

## GCTIGRGDWAPSECKQDSDCLAGCVCGPNGFCG [1.5B (yeast-displayed EETI-based variant)]
[1]
  Kd: ~50 nM

## GCHVGRGDWAPEECKQDSDCQAGCVCGPNGFCG [2.5A (yeast-displayed EETI-based variant)]
[1]
  Kd: ~50 nM

## GCTIGRGDWAPSECSQDSDCLAGCVCGPNGFCG (also called RGD-miniprotein 1.5B) [Miniprotein 1.5B (synthetic, soluble)]
[2]
  IC50: 13 nM

## GCASGSGDPCLGQQVPCCDPAATCYCYGRGDNDLRCYCR (ends and bridges not checked; cysteine pairing not given here) [AgRP 7C loop 1 clone 1-1 (yeast-displayed)]
[3]
  binding result: no binding (tested: 50 nM)

## GCVRLHESCLGQQVPCCTSKQHHCYCYGRGDNDLRCYCR [AgRP 7C loop 3 clone 3-6 (yeast-displayed)]
[3]
  binding result: no binding (tested: 50 nM)

## {Cy5.5}-GCPQGRGDWAPTSCSQDSDCRAGCVCGPNGFCG (cysteine pairing not given here) [Cy5.5-labeled Miniprotein 2.5D]
[4]
  IC50: 4.2 nM

## GCVRLHESCEWGRGGDCCDPAATCYCYGRGDNDLRCYCR (ends and bridges not checked; cysteine pairing not given here) [AgRP 7C loop 2 clone 2-4 (yeast-displayed)]
[3]
  binding result: no binding (tested: 50 nM)

B1: recombinant engineered AgRP peptide 6C (FLAG and hexahistidine tagged) (peptide)
chain: DYKDDDDKGCVRLHESCLGQQVPCCDPAATCYCTGRGDEKLRCYCRHHHHHH
[5]
  Kd: 13 nM
[6]
  Kd: > 100 nM
[7]
  Kd: 15 nM
[8]
  adhesion (IC50; nM) of K562-αvβ3 cells to vitronectin-coated wells: 650 nM

B2: recombinant engineered AgRP peptide 7E (FLAG and hexahistidine tagged) (peptide)
chain: DYKDDDDKGCVRLHESCLGQQVPCCDPAATCYCVGRGDDNLKCYCRHHHHHH
[5]
  Kd: 1.4 nM
[6]
  Kd: > 100 nM
[7]
  Kd: 1.6 nM
[8]
  adhesion (IC50; nM) of K562-αvβ3 cells to vitronectin-coated wells: 9.9 nM

B3: recombinant engineered AgRP peptide 7J (FLAG and hexahistidine tagged) (peptide)
chain: DYKDDDDKGCVRLHESCLGQQVPCCDPAATCYCEGRGDRDMKCYCRHHHHHH
notes: also called 7J (6B); 6B
[5]
  Kd: 8.3 nM
[6]
  Kd: > 100 nM
[7]
  Kd: 16 nM
[8]
  adhesion (IC50; nM) of K562-αvβ3 cells to vitronectin-coated wells: 200 nM

## {Cy5.5}-GCTIGRGDWAPSECSQDSDCLAGCVCGPNGFCG (cysteine pairing not given here) [Cy5.5-labeled Miniprotein 1.5B]
[4]
  IC50: 6.4 nM

## GCVRLHESCLGQQVPCCQGREQSCYCYGRGDNDLRCYCR [AgRP 7C loop 3 clone 3-4 (yeast-displayed)]
[3]
  binding result: no binding (tested: 50 nM)

## GCLAGLSGPCLGQQVPCCDPAATCYCYGRGDNDLRCYCR (ends and bridges not checked; cysteine pairing not given here) [AgRP 7C loop 1 clone 1-3 (yeast-displayed)]
[3]
  binding result: no binding (tested: 50 nM)

B4: Miniprotein 2.5F (synthetic, soluble) (peptide)
chain: GCPRPRGDNPPLTCSQDSDCLAGCVCGPNGFCG
notes: also called knottin peptide 2.5F; RGD-miniprotein 2.5F
[2]
  IC50: 26 nM

## GCVRLHESCWGSILGHCCDPAATCYCYGRGDNDLRCYCR (ends and bridges not checked; cysteine pairing not given here) [AgRP 7C loop 2 clone 2-6 (yeast-displayed)]
[3]
  binding result: no binding (tested: 50 nM)

## GCVRLHESCLGQQVPCCGTPKPECYCYGRGDNDLRCYCR (ends and bridges not checked; cysteine pairing not given here) [AgRP 7C loop 3 clone 3-1 (yeast-displayed)]
[3]
  binding result: no binding (tested: 50 nM)

## GCRSASVGGCLGQQVPCCDPAATCYCYGRGDNDLRCYCR (ends and bridges not checked; cysteine pairing not given here) [AgRP 7C loop 1 clone 1-4 (yeast-displayed)]
[3]
  binding result: no binding (tested: 50 nM)

## GCVRLHESCLGQQVPCCDPAATCYCVERGDGNRRCYCR (ends and bridges not checked; cysteine pairing not given here) [6E (synthesized Mini-RGD-AgRP peptide)]
[9]
  IC50: 130 nM

## GCVRLHESCADTLMAACCDPAATCYCYGRGDNDLRCYCR (ends and bridges not checked; cysteine pairing not given here) [AgRP 7C loop 2 clone 2-3 (yeast-displayed)]
[3]
  binding result: no binding (tested: 50 nM)

## QCESGPCCRNCKFLKEGTICKRARGDDMDDYCNGKTCDCPRNPHKGPAT (ligand, ends and bridges not checked; also: Cy5.5-labeled, site not given here) [Cy5.5-labeled echistatin]
[4]
  IC50: 2.6 nM

## GCVRLHESCGGSVGVECCDPAATCYCYGRGDNDLRCYCR (ends and bridges not checked; cysteine pairing not given here) [AgRP 7C loop 2 clone 2-1 (yeast-displayed)]
[3]
  binding result: no binding (tested: 50 nM)

## GCVRLHESCDPRVGVRCCDPAATCYCYGRGDNDLRCYCR (ends and bridges not checked; cysteine pairing not given here) [AgRP 7C loop 2 clone 2-2 (yeast-displayed)]
[3]
  binding result: no binding (tested: 50 nM)

## GCVRLHESCLGQQVPCCDPAATCYCESRGDVVRKCYCR (ends and bridges not checked; cysteine pairing not given here) [6F (synthesized Mini-RGD-AgRP peptide)]
[9]
  IC50: 410 nM

## {Cy5.5}-GCPRPRGDNPPLTCSQDSDCLAGCVCGPNGFCG (cysteine pairing not given here) [Cy5.5-labeled Miniprotein 2.5F]
[4]
  IC50: 3.4 nM

## GCIASGLFGCLGQQVPCCDPAATCYCYGRGDNDLRCYCR (ends and bridges not checked; cysteine pairing not given here) [AgRP 7C loop 1 clone 1-5 (yeast-displayed)]
[3]
  binding result: no binding (tested: 50 nM)

## GCDLYGSHDCLGQQVPCCDPAATCYCYGRGDNDLRCYCR (ends and bridges not checked; cysteine pairing not given here) [AgRP 7C loop 1 clone 1-6 (yeast-displayed)]
[3]
  binding result: no binding (tested: 50 nM)

## GCVRLHESCGSWGTLACCDPAATCYCYGRGDNDLRCYCR (ends and bridges not checked; cysteine pairing not given here) [AgRP 7C loop 2 clone 2-5 (yeast-displayed)]
[3]
  binding result: no binding (tested: 50 nM)

## GCVRLHESCLGQQVPCCTVTNSRCYCYGRGDNDLRCYCR [AgRP 7C loop 3 clone 3-5 (yeast-displayed)]
[3]
  binding result: no binding (tested: 50 nM)

## {Cy5.5}-GCVTGRGDSPASSCSQDSDCLAGCVCGPNGFCG (cysteine pairing not given here, also called Cy5.5-labeled FN-RGD) [Cy5.5-labeled loop-grafted FN-RGD]
[4]
  IC50: 33.9 nM

## GCRPLGDAGCLGQQVPCCDPAATCYCYGRGDNDLRCYCR (ends and bridges not checked; cysteine pairing not given here) [AgRP 7C loop 1 clone 1-2 (yeast-displayed)]
[3]
  binding result: no binding (tested: 50 nM)

## GCVTGRGDSPASSCSQDSDCLAGCVCGPNGFCG (also called FN-RGD2; RGD-EETI #3) [Loop-grafted FN-RGD (synthetic, soluble)]
[2]
  IC50: 370 nM

## GCVRLHESCLGQQVPCCDPAATCYCQYRGDGMKHCYCR (ends and bridges not checked; cysteine pairing not given here) [3F (synthesized Mini-RGD-AgRP peptide)]
[9]
  IC50: 880 nM

## GCVRLHESCLGQQVPCCSRSDAHCYCYGRGDNDLRCYCR (ends and bridges not checked; cysteine pairing not given here) [AgRP 7C loop 3 clone 3-2 (yeast-displayed)]
[3]
  binding result: no binding (tested: 50 nM)

## GCVRLHESCLGQQVPCCSGLGNRCYCYGRGDNDLRCYCR (ends and bridges not checked; cysteine pairing not given here) [AgRP 7C loop 3 clone 3-3 (yeast-displayed)]
[3]
  binding result: no binding (tested: 50 nM)
